Legend:
[1] = PDGF release from washed demineralized bone graft (ELISA); type: physicochemical
Procedure: The washes were conducted as follows. The bone graft sample (−0.1 g) was placed in a small plastic tube and then either 1.0 ml of water, saline solution, or elution buffer was added to the sample. The mixture was allowed to sit at room temperature for 5 minutes with occasional gently mixing by hand. At the end of the 5 minutes, the fluid was pulled off the bone graft material using a pipet, and the remaining fluid was removed by compressing the material with a sterile cotton Q-tip applicator. Following this, a solution of 0.3 mg/ml rhPDGF-BB was added to the washed bone graft and samples were removed for quantification of PDGF by ELISA over 60 minutes.

[2] = Non-reducing SDS-PAGE of rhPDGF-BB eluted from human FDBA; type: physicochemical; settings: data not shown
Procedure: (§1) In particular, PDGF (0.5 ml of 0.3 mg/ml) was incubated with the freeze-dried bone graft (˜0.5 ml) and mixed for 10 minutes, 60 minutes, or overnight at room temperature. Then 1 mL of 1 M NaCl was added as described above for FIG. 1. The final NaCl concentration was 667 mM. PDGF was separated from the bone graft by centrifugation at 15,334×g for 2 minutes and the supernatant containing PDGF was analyzed by SEC, RPHPLC, ELISA, and non-reducing SDS-PAGE. […] Released PDGF was measured using a standard ELISA assay. The ELISA assay was performed using Quantikine® Human PDGF-BB Immunoassay from R&D Systems, Inc. according to the manufacturer's protocol (see, for example, world wide web at rndsystems.com/pdf/dbb00.pdf). Briefly, a receptor for human PDGF-BB was coated onto a plate, then PDGF was bound and evaluated with a secondary antibody-HRP conjugate and the chromogen tetramethylbenzidine for detection. […] Alternatively, the concentrations of the rhPDGF-BB in supernatants were determined using the size exclusion HPLC (SEC) on TOSOH Biosep TSK-Gel, 7.8 mm×3 cm HPLC column and TOSOH Biosep TSK-Gel, 6.0 mm×4.0 cm precolumn (Tosoh Bioscience, San Francisco, Calif.) by integration of the elution profile of PDGF and using calibration at 5 different concentrations of standard PDGF as shown in FIG. 4C.

[3] = Binding and release of PDGF from human bone graft (salt elution; ELISA / SEC); type: physicochemical
Procedure: FIG. 1 summarizes an exemplary protocol for studying the binding and release of PDGF from bone graft. For some experiments, the amounts were scaled down two or ten times to preserve the bone graft materials. In particular, 100 μl of human bone graft (LifeNet, Inc.) was mixed with 100 μl of PDGF at a concentration of 0.3 mg/mL in 20 mM NaOAc, pH 6.0 for ten minutes. The bone graft consisted of dry particles. The bone graft was freeze-dried before being sold (referred to as freeze-dried bone allograft, or FDBA). Then, 200 μl of NaCl (at various concentrations) in 20 mM NaOAc, pH 6.0 or phosphate buffered saline (PBS) (without NaOAc) was added. The solution was then incubated for either 1 hour or 24 hours. PDGF in solution was separated from insoluble human bone graft by centrifugation at ˜2000×g for 5 minutes at 4° C., and then the amount of rhPDGF-BB released from the matrix was determined by colorimetric ELISA Quantikine assy (R & D Systems, Minneapolis, Minn.) using plates coated with the receptor to human PDGF-BB.
as §1, with “The final NaCl concentration was 667 mM.” left out, “The ELISA assay was performed using Quantikine® Human PDGF-BB Immunoassay from R&D Systems, Inc. according to the manufacturer's protocol (see, for example, world wide web at rndsystems.com/pdf/dbb00.pdf).” left out, “4C. […]” for “4C.”

[4] = test system: MG-63 cells; assay: MG-63 cell-based bioassay of rhPDGF eluted from FDBA; settings: eluted from FDBA with NaCl after ten minutes; data not shown

rhPDGF-BB: recombinant human platelet-derived growth factor BB
amount of PDGF released from DM bone graft ([1]; bone graft washed 5 minutes in saline): More PDGF was released | amount of PDGF released from DM bone graft at the end of the 60 minute study ([1]; bone graft washed 5 minutes in sterile water): decrease | amount of PDGF released from DM bone graft ([1]; bone graft washed in elution buffer): somewhere in the middle between water and saline washes | electrophoretic comparison with control rhPDGF-BB [2]: electrophoretically indistinguishable | PDGF release from freeze-dried bone graft with other compounds ([3]; MEM and acetic acid in place of NaCl): release of some PDGF | PDGF released from bone graft by salt incubation ([3]; NaCl up to 1.5 M or PBS, 1 hour or 24 hours, ELISA): significant amount of PDGF was released | rhPDGF-BB bound to the bone graft matrix recovered from the bone graft ([3]; mixture of rhPDGF-BB and bone graft washed with a low ionic strength buffer): less than 10% | biopotency compared to a control sample of rhPDGF-BB [4]: retained its biopotency

From patent US20100196347A1, “BONE GRAFTS WITH REDUCED PROTEASE ACTIVITY AND METHODS OF SELECTION AND USE” (priority 2008, published 2010)
